In publication PMC5587394 (Structure (London, England : 1993), 2017):

Biological target: FGF9^WT (human FGF9, residues 35-208) (human, UniProt P31371 35-208)
Test: SPR

binding result: binds
B1: FGFR1c^ecto/WT (human FGFR1c ectodomain, residues 141-365) (domain or fragment)
chain: TDNTKPNRMPVAPYWTSPEKMEKKLHAVPAAKTVKFKCPSSGTPNPTLRWLKNGKEFKPDHRIGGYKVRYATWSIIMDSVVPSDKGNYTCIVENEYGSINHTYQLDVVERSPHRPILQAGLPANKTVALGSNVEFMCKVYSDPQPHIQWLKHIEVNGSKIGPDNLPYVQILKTAGVNTTDKEMEVLHLRNVSFEDAGEYTCLAGNSIGLSHHSAWLTVLEALEER
